From patent US20100323904, “Transcription chip” (published 2010)

T1: Vitamin D receptor (VDR) (UniProt P11473 P11473:1-427)
T1 sequence: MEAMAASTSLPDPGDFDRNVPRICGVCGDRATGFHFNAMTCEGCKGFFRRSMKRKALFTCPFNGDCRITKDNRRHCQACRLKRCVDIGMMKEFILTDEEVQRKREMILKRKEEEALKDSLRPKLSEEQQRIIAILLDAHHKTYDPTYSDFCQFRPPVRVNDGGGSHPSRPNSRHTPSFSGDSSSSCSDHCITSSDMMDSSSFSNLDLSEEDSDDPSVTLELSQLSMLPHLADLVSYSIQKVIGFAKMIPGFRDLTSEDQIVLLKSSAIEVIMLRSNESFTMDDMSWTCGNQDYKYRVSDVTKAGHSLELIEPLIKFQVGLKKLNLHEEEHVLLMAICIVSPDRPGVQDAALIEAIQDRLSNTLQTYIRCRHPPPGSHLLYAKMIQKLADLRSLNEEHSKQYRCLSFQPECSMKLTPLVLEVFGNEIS

B1: AP1 (dsDNA)
DNA 1: GGGAGCTGAGTATGACTCATATGCATGCTGACTCATCATG
DNA 2: CATGATGAGTCAGCATGCATATGAGTCATACTCAGCTCCC
modifications: 5'-NH2(CH2)12 on top strand, immobilized on chip
B2: VDRE (dsDNA)
DNA 1: GGGAGCTGAGTAAGGTCAAGGAGGTCAATGCATGCAGGTCAAGGAGGTCACATG
DNA 2: CATGTGACCTCCTTGACCTGCATGCATTGACCTCCTTGACCTTACTCAGCTCCC
modifications: 5'-NH2(CH2)12 on top strand, immobilized on chip
B3: TRE (dsDNA)
DNA 1: GGGAGCTGAGTAAGGTCATGACCTATGCATGCAGGTCATGACCTCATG
DNA 2: CATGAGGTCATGACCTGCATGCATAGGTCATGACCTTACTCAGCTCCC
modifications: 5'-NH2(CH2)12 on top strand, immobilized on chip
B4: IgkB (two copies) (dsDNA)
DNA 1: GGGAGCTGAGTAGGGGATCCCATGCATGCGGGGATCCCCATG
DNA 2: CATGGGGATCCCCGCATGCATGGGATCCCCTACTCAGCTCCC
modifications: 5'-NH2(CH2)12 on top strand, immobilized on chip
B5: RARE (dsDNA)
DNA 1: GGGAGCTGAGTAAGGTCACCAGGAGGTCAATGCATGCAGGTCACCAGGAGGTCACATG
DNA 2: CATGTGACCTCCTGGTGACCTGCATGCATTGACCTCCTGGTGACCTTACTCAGCTCCC
modifications: 5'-NH2(CH2)12 on top strand, immobilized on chip
B6: CRE (dsDNA)
DNA 1: GGGAGCTGAGTATGACGTCAATGCATGCTGACGTCACATG
DNA 2: CATGTGACGTCAGCATGCATTGACGTCATACTCAGCTCCC
modifications: 5'-NH2(CH2)12 on top strand, immobilized on chip
B7: PRD II (two copies) (dsDNA)
DNA 1: GGGAGCTGAGTAGGGAAATTCCATGCATGCGGGAAATTCCCATG
DNA 2: CATGGGAATTTCCCGCATGCATGGAATTTCCCTACTCAGCTCCC
modifications: 5'-NH2(CH2)12 on top strand, immobilized on chip

Assays:
[1] = target: T2, NF-kB p50 (UniProt P19838 P19838:1-433); experiment: array fluorescence immunoassay, 100 ng/mL; in ELISA about 30-50% background color before blocking optimisation; settings: tags: Promega; chain copies: 2
T2 sequence (P19838 1-433, one chain of several): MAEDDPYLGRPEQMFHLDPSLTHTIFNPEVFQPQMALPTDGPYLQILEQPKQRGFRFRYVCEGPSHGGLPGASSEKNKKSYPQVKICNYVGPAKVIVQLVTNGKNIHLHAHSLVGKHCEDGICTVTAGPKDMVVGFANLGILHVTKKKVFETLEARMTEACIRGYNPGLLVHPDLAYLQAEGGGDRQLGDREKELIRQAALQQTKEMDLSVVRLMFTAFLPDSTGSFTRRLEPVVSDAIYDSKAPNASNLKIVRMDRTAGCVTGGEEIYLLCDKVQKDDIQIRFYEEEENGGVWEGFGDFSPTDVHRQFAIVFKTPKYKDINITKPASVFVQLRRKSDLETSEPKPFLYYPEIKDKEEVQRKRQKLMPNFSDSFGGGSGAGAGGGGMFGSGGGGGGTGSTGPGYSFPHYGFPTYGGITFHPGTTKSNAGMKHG
Description: (§1) After washing twice with the washing buffer, NFκB diluted at 100 ng/mL with the binding buffer was added, and shaken at room temperature for one hour. After washing three times with the washing buffer, anti-NFκB antibody (RCK) diluted 100 times with antibody diluting buffer was added, and shaken at room temperature for one hour. After washing twice with the washing buffer, FITC-labeled anti-rabbit IgG antibody diluted 50 times with the antibody diluting buffer was added, and shaken at room temperature for one hour. After washing twice with the washing buffer, at a fluorescence wavelength of 535 nm based on Fluorescence of FITC excited with laser at a wavelength of 473 nm, fluorescent intensity was detected by CRBIO II microarray scanner.
The oligonucleotides comprising 9 element sequences, PRD II, AP1, p53, VDRE, RARE, CRE, TRE, GRE and ERE which were not labeled with FITC were similarly immobilized on the DLC chip. NFκB (100 ng/mL) was added to the DLC chip on which these 9 transcription factors had been arrayed, and detected by fluorescence immunoassay. As a result, the fluorescence was detected only from the oligonucleotide comprising PRD II which was the NFκB recognition sequence. […]

[2] = target: T2, NF-kB p50; experiment: array fluorescence immunoassay, 100 ng/mL; settings: tags: Promega; chain copies: 2
Description: as §1
The oligonucleotides comprising 9 element sequences, PRD II, AP1, p53, VDRE, RARE, CRE, TRE, GRE and ERE which were not labeled with FITC were similarly immobilized on the DLC chip. NFκB (100 ng/mL) was added to the DLC chip on which these 9 transcription factors had been arrayed, and detected by fluorescence immunoassay. As a result, the fluorescence was detected only from the oligonucleotide comprising PRD II which was the NFκB recognition sequence. […] Therefore, it is possible to construct the system in which multiple transcription factors are simultaneously detected in a sample in a small amount by combining antibodies which specifically recognize the transcription factors which is bound to the other element sequences.

[3] = target: T1, Vitamin D receptor (VDR); experiment: 500 fmol/chip; captured VDR detected by on-chip trypsin digestion and MALDI-TOF MS
Description: Next, the on-chip digestion of 500 fmol/chip of vitamin D receptor was performed using trypsin (1 μg/mL) on the chip on which the element sequence VDRE which was the recognition sequence of the vitamin D receptor had been immobilized. Subsequently, the sample was added to the MALDI plate, and consequently, the same peptide map as that obtained by trypsin digestion of the sample in the solution was obtained as is the case with NFκB (FIGS. 16 and 17).

[4] = target: T2, NF-kB p50; experiment: ELISA; trapping equivalent to or more than PRD II-2; settings: tags: Promega; chain copies: 2; label: 5'-FITC on bottom strand
Description: (§2) The plate was washed twice with the washing buffer, NFκB at various concentrations diluted with the binding buffer was added, and the plate was shaken at room temperature for one hour. The plate was washed three times with the washing buffer, anti-NFκB antibody diluted 2000 times with antibody diluting buffer was added, and the plate was shaken at room temperature for one hour. The plate was washed three times with the washing buffer, POD-labeled anti-rabbit IgG secondary antibody diluted 2000 times with the antibody diluting buffer was added, and the plate was shaken at room temperature for one hour. The plate was washed five times with the washing buffer, and subsequently absorbance at a wavelength of 450 nm based on the absorbance of TMBZ which was a color development substrate of POD was measured by a microplate reader.
(§3) In order to investigate an ELISA condition for NFκB, the double-stranded DNA comprising the element DNA sequence different in length and copy number were synthesized by the PCR method or a synthetic method, and analyzed. When PRD II-1 comprising one copy of the PRD II sequence was compared with PRD II-2, the immobilized PRD II-2 was more excellent in efficiency of trapping NFκB (FIG. 5). […]

[5] = target: T2, NF-kB p50; experiment: ELISA; on-chip ELISA; detected down to 1.0 ng/mL (DLC) and 0.33 ng/mL (GeneDia); 1% BSA, 10 mM HEPES pH 7.5, salmon sperm DNA, 2 mM DTT, room temperature; also fluorescence immunoassay on array; settings: tags: Promega; chain copies: 2
Description: as §2, §3

Binder	binding result [2]	other results
B1		binding result [1]: no binding
B2	no binding	binding result [3]: binds
B3	no binding	
B4		binding result [4]: binds
B5	no binding	
B6	no binding	
B7		binding result [5]: binds
